Laboratory results from patent publication US20230355534A1, “METHOD TO ENCAPSULATE AN AQUEOUS SOLUTION COMPRISING A COMPOUND OF INTEREST IN A MATRIX” (SECOYA TECHNOLOGIES, priority 2020, published 2023).

What was measured:
[1] = Encapsulation efficiency by spectrophotometry of the second aqueous solution after separation of the particles; type: physicochemical; settings: Example 1 particles (Eudragit S100 matrix, oleic acid shell); typical detection limit 2 w %
Experimental: The encapsulation efficiency has been measured through spectrophotometry measurement by means of a Thermoscientific Genesys 180 device. The encapsulation efficiency is measured by measuring the percentage of compound of interest in the second aqueous solution after separation of the obtained particles. The percentage is a weight percentage, i.e. the mass of compound in relation to the total mass of the second aqueous solution. Given the high mass of second aqueous solution in relation to the mass of the compound of interest, only significant amounts of compound of interest are detected. A typical detection limit is 2 w %. If no compound of interest is detected in the second aqueous solution after separation of the obtained particles, it means that no to very low quantities of compound of interest are present in the second aqueous solution, and that the encapsulation can be considered to have been efficient. Detection of the compound of interest indicates less efficient encapsulation. The larger the amount of compound of interest detected, the less efficient was the encapsulation.
For the measurement of the encapsulation efficiency, the protein pork haemoglobin was used as compound of interest for encapsulation.

[2] = Encapsulation yield by spectrophotometry after dissolution of the particles; type: physicochemical; settings: Example 1 particles; percentage of compound initially used that is detected in the particles; upper limit of detection 98%
Experimental: A second evaluation method measures the encapsulation yield. The encapsulation yield is measured directly on the particles, and represents the percentage of the compound of interest initially used in the encapsulation method that is detected in the particles. The measurement is performed by spectrophotometry by means of a Thermoscientific Genesys 180 device after dissolution of the particles. Based on the detection limits of the device, the upper limit of encapsulation yield is noticed to be 98%, meaning that approximately 2% is not detected. This also means that an encapsulation yield of 98% indicates a very good encapsulation of the compound of interest.
For the measurement of the encapsulation yield, the protein pork haemoglobin was used as compound of interest for encapsulation. The encapsulation yield for pork haemoglobin was up to 98%, indicating a very high encapsulation yield.

pork haemoglobin
encapsulation efficiency: compound of interest detected in the second aqueous solution after separation of the obtained particles [1]: No traces | encapsulation yield [2]: up to 98%
